Laboratory results taken from patent US20210198319A1, “CYTOTOXIC PEPTIDES AND CONJUGATES THEREOF” (AEBI LTD., priority 2017, published 2021).
No end group written: not given here.

What was measured:
[1] = biological target: human eukaryotic elongation factor 2 (eEF2) (Homo sapiens, UniProt P13639); assay: Cyclic peptide library tested for binding to eEF2; conditions: after optimization process
Excerpt: Using the technique described in WO 2007/010525, a library of cyclic peptides was generated and tested for binding to human eukaryotic elongation factor 2 (eEF2).

cells = assay: Toxicity to cells of library peptides; type: cell-based; conditions: cyclic peptide library, after optimization process

Cys-Ser-Ala-Arg-Trp-Gly-Pro-Ile-Met-Pro-Trp-Cys (CSARWGPIMPWC; also: cyclic, ring type not given here) [GW2]
binding to eEF2 (rank among library peptides) [1]: most potent peptide
toxicity to cells (rank among library peptides) (cells): most potent peptide
